Experimental data reported in publication PMC9021867 (Cell, 2022).

B1: β-VHH6 (VHH)
VHH: QVQLQESGGGSVQAGGSLRLSCAASSYTISSVCMGWFRQAPGKEREGVAGIAPDGSTGYGDSVKGRFTISKDNAKNTLYLQMNSLKPEDTAMYYCAAASPGRCFLPRTALEPALYYNWGQGTQVTVSS
B2: β-VHH4 (VHH)
VHH: QVQLQESGGGSVQAGGSLRLSCAASGSTSCSSVMRWYRQAPGKEREFVSSINSDRRTVYADSVKGRFTISQDNAKSTLYLQMNSLKAEDTATYYCQRELYGDSWCQGNYWGQGTQVTVSS
B3: β-VHH1 (VHH)
VHH: QVQLQESGGGSVQAGGSLRLSCVTSGYTYSSANMAWFRQAPGKEREGVAIITPSGRATTYADSVKGRFTISRDNAANTLYLQMNSLKPEDTAMYYCAADTPPYSGLWYAERTYNYWGQGTQVTVSS
B4: β-VHH3 (VHH)
VHH: QVQLQESGGGSVQAGGSLRLSCTASGFTFDDEDMGWYRQAPGNECELVSSIGSLGRRYYADSVKDRFAISQDNAKNTVYLQMNSLKPEDTAVYYCAATKGGSWLDSILASCQGAFGYWGQGTQVTVSS

Molecular target: Biotinylated human IL-2Rβ ECD (Homo sapiens, UniProt P14784, biotinylated)
Sequence (P14784 27-240): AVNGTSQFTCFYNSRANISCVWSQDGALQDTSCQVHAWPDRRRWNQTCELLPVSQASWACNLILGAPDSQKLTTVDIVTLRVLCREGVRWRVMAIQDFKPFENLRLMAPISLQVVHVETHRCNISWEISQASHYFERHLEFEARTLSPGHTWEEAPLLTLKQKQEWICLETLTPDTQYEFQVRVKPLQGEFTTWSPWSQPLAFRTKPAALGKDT
Assay: SPR

Binding result, binds:
B1
B2
B3
B4
